# Assay results taken from paper PMC2248580.
# Target: human activated blood coagulation factor X (FXa) (human)
# Assay: SPR; […]; 37°C; HBS (10 mM Hepes, 150 mM NaCl, 5 mM CaCl2, 0.005% P20, pH 7.4); Langmuir fit; […]
# Chain of human activated blood coagulation factor X (FXa) (human) (P00742 whole entry): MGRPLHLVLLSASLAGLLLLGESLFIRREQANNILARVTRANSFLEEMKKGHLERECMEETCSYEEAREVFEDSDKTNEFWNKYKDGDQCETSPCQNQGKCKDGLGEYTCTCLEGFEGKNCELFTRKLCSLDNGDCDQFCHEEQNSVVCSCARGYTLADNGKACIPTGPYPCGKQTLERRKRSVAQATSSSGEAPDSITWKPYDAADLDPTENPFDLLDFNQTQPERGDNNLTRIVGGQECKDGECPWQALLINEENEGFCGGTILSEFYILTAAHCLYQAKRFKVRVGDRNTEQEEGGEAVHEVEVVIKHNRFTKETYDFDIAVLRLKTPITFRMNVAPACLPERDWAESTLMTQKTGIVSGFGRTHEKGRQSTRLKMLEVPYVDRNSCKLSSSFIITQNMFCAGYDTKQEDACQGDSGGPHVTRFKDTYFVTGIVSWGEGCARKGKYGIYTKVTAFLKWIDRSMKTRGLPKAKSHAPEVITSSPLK
Binder,Kd,koff,kon
Non-pancreatic secreted human group IIA phospholipase A2 (enzyme) NLVNFHRMIKLTTGKEAALSYGFYGCHCGVGGRGSPKDATDRCCVTHDCCYKRLEKRGCGTKFLSYKFSNSGSRITCAKQDSCRSQLCECDKAAATCFARNKTTYNKKYQYYSNKHCRGSTPRC,14 nM,0.029 s⁻¹,2e+06 M⁻¹ s⁻¹
isoform A of ammodytoxin from Vipera ammodytes ammodytes venom (enzyme) SLLEFGMMILGETGKNPLTSYSFYGCYCGVGGKGTPKDATDRCCFVHDCCYGNLPDCSPKTDRYKYHRENGAIVCGKGTSCENRICECDRAAAICFRKNLKTYNYIYRNYPDFLCKKESEKC,30 nM,0.007 s⁻¹,220000 M⁻¹ s⁻¹
